Patent publication US20250361268A1, “NOVEL ANTI-INFLAMMATORY PEPTIDE AND USE THEREOF” (NOVACELL TECHNOLOGY INC., priority 2022, published 2025)

T1: formyl peptide receptor 2 (FPR2) (UniProt P25090 1-351, limits assumed)
T1 sequence (looked up): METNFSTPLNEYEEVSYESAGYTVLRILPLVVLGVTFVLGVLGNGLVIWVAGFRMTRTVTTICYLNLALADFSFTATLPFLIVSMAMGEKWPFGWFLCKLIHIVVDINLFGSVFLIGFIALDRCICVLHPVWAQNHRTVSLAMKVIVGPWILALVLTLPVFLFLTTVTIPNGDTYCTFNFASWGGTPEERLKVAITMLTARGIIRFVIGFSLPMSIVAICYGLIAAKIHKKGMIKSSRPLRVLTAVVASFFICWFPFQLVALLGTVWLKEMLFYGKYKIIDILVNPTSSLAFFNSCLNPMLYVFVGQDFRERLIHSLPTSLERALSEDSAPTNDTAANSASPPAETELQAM

B1: peptide of SEQ ID NO 107 (peptide)
peptide: RMRYWPM
HELM: PEPTIDE1{[ac].R.M.R.Y.W.P.[dM].[am]}$$$$V2.0
SMILES: CSCC[C@H](NC(=O)[C@H](CCCNC(=N)N)NC(C)=O)C(=O)N[C@@H](CCCNC(=N)N)C(=O)N[C@@H](Cc1ccc(O)cc1)C(=O)N[C@@H](Cc1c[nH]c2ccccc12)C(=O)N1CCC[C@H]1C(=O)N[C@H](CCSC)C(N)=O
B2: peptide of SEQ ID NO 112 (peptide)
peptide: MRYWPM
HELM: PEPTIDE1{[CCCC(=O)[*:2]].M.R.Y.W.P.[dM].[am]}$$$$V2.0
SMILES: CCCC(=O)N[C@@H](CCSC)C(=O)N[C@@H](CCCNC(=N)N)C(=O)N[C@@H](Cc1ccc(O)cc1)C(=O)N[C@@H](Cc1c[nH]c2ccccc12)C(=O)N1CCC[C@H]1C(=O)N[C@H](CCSC)C(N)=O
B3: peptide of SEQ ID NO 137 (peptide)
peptide: IKYKVM
HELM: PEPTIDE1{[CCCCCCCC(=O)[*:2]].I.K.Y.K.V.[dM].[am]}$$$$V2.0
SMILES: CCCCCCCC(=O)N[C@H](C(=O)N[C@@H](CCCCN)C(=O)N[C@@H](Cc1ccc(O)cc1)C(=O)N[C@@H](CCCCN)C(=O)N[C@H](C(=O)N[C@H](CCSC)C(N)=O)C(C)C)[C@@H](C)CC
B4: peptide of SEQ ID NO 113 (peptide)
peptide: MKYWPM
HELM: PEPTIDE1{M.K.Y.W.P.[dM].[am]}$$$$V2.0; N-terminus assumed
SMILES: CSCC[C@H](N)C(=O)N[C@@H](CCCCN)C(=O)N[C@@H](Cc1ccc(O)cc1)C(=O)N[C@@H](Cc1c[nH]c2ccccc12)C(=O)N1CCC[C@H]1C(=O)N[C@H](CCSC)C(N)=O
B5: peptide of SEQ ID NO 117 (peptide)
peptide: RWRYWPM
HELM: PEPTIDE1{[ac].R.W.R.Y.W.P.[dM].[am]}$$$$V2.0
SMILES: CSCC[C@@H](NC(=O)[C@@H]1CCCN1C(=O)[C@H](Cc1c[nH]c2ccccc12)NC(=O)[C@H](Cc1ccc(O)cc1)NC(=O)[C@H](CCCNC(=N)N)NC(=O)[C@H](Cc1c[nH]c2ccccc12)NC(=O)[C@H](CCCNC(=N)N)NC(C)=O)C(N)=O
B6: peptide of SEQ ID NO 122 (peptide)
peptide: WRYYPM
HELM: PEPTIDE1{[ac].W.R.Y.Y.P.[dM].[am]}$$$$V2.0
SMILES: CSCC[C@@H](NC(=O)[C@@H]1CCCN1C(=O)[C@H](Cc1ccc(O)cc1)NC(=O)[C@H](Cc1ccc(O)cc1)NC(=O)[C@H](CCCNC(=N)N)NC(=O)[C@H](Cc1c[nH]c2ccccc12)NC(C)=O)C(N)=O
B7: peptide of SEQ ID NO 31 (peptide)
peptide: HMRYRVM
HELM: PEPTIDE1{H.M.R.Y.R.V.[dM].[am]}$$$$V2.0; N-terminus assumed
SMILES: CSCC[C@H](NC(=O)[C@@H](N)Cc1c[nH]cn1)C(=O)N[C@@H](CCCNC(=N)N)C(=O)N[C@@H](Cc1ccc(O)cc1)C(=O)N[C@@H](CCCNC(=N)N)C(=O)N[C@H](C(=O)N[C@H](CCSC)C(N)=O)C(C)C
B8: peptide of SEQ ID NO 115 (peptide)
peptide: MKYWPM
HELM: PEPTIDE1{[CCCC(=O)[*:2]].M.K.Y.W.P.[dM].[am]}$$$$V2.0
SMILES: CCCC(=O)N[C@@H](CCSC)C(=O)N[C@@H](CCCCN)C(=O)N[C@@H](Cc1ccc(O)cc1)C(=O)N[C@@H](Cc1c[nH]c2ccccc12)C(=O)N1CCC[C@H]1C(=O)N[C@H](CCSC)C(N)=O
B9: peptide of SEQ ID NO 111 (peptide)
peptide: MRYWPM
HELM: PEPTIDE1{[ac].M.R.Y.W.P.[dM].[am]}$$$$V2.0
SMILES: CSCC[C@H](NC(C)=O)C(=O)N[C@@H](CCCNC(=N)N)C(=O)N[C@@H](Cc1ccc(O)cc1)C(=O)N[C@@H](Cc1c[nH]c2ccccc12)C(=O)N1CCC[C@H]1C(=O)N[C@H](CCSC)C(N)=O
B10: peptide of SEQ ID NO 121 (peptide)
peptide: RWRYYPM
HELM: PEPTIDE1{[ac].R.W.R.Y.Y.P.[dM].[am]}$$$$V2.0
SMILES: CSCC[C@@H](NC(=O)[C@@H]1CCCN1C(=O)[C@H](Cc1ccc(O)cc1)NC(=O)[C@H](Cc1ccc(O)cc1)NC(=O)[C@H](CCCNC(=N)N)NC(=O)[C@H](Cc1c[nH]c2ccccc12)NC(=O)[C@H](CCCNC(=N)N)NC(C)=O)C(N)=O
B11: peptide of SEQ ID NO 106 (peptide)
peptide: RMRYWPM
HELM: PEPTIDE1{R.M.R.Y.W.P.[dM].[am]}$$$$V2.0; N-terminus assumed
SMILES: CSCC[C@H](NC(=O)[C@@H](N)CCCNC(=N)N)C(=O)N[C@@H](CCCNC(=N)N)C(=O)N[C@@H](Cc1ccc(O)cc1)C(=O)N[C@@H](Cc1c[nH]c2ccccc12)C(=O)N1CCC[C@H]1C(=O)N[C@H](CCSC)C(N)=O
B12: peptide of SEQ ID NO 110 (peptide)
peptide: MRYWPM
HELM: PEPTIDE1{M.R.Y.W.P.[dM].[am]}$$$$V2.0; N-terminus assumed
SMILES: CSCC[C@H](N)C(=O)N[C@@H](CCCNC(=N)N)C(=O)N[C@@H](Cc1ccc(O)cc1)C(=O)N[C@@H](Cc1c[nH]c2ccccc12)C(=O)N1CCC[C@H]1C(=O)N[C@H](CCSC)C(N)=O
B13: peptide of SEQ ID NO 120 (peptide)
peptide: MRYYPM
HELM: PEPTIDE1{M.R.Y.Y.P.[dM].[am]}$$$$V2.0; N-terminus assumed
SMILES: CSCC[C@H](N)C(=O)N[C@@H](CCCNC(=N)N)C(=O)N[C@@H](Cc1ccc(O)cc1)C(=O)N[C@@H](Cc1ccc(O)cc1)C(=O)N1CCC[C@H]1C(=O)N[C@H](CCSC)C(N)=O
B14: peptide of SEQ ID NO 119 (peptide)
peptide: RMRYYPM
HELM: PEPTIDE1{[ac].R.M.R.Y.Y.P.[dM].[am]}$$$$V2.0
SMILES: CSCC[C@H](NC(=O)[C@H](CCCNC(=N)N)NC(C)=O)C(=O)N[C@@H](CCCNC(=N)N)C(=O)N[C@@H](Cc1ccc(O)cc1)C(=O)N[C@@H](Cc1ccc(O)cc1)C(=O)N1CCC[C@H]1C(=O)N[C@H](CCSC)C(N)=O
B15: peptide of SEQ ID NO 14 (peptide)
peptide: MRYKVM
HELM: PEPTIDE1{[ac].M.R.Y.K.V.[dM].[am]}$$$$V2.0
SMILES: CSCC[C@H](NC(C)=O)C(=O)N[C@@H](CCCNC(=N)N)C(=O)N[C@@H](Cc1ccc(O)cc1)C(=O)N[C@@H](CCCCN)C(=O)N[C@H](C(=O)N[C@H](CCSC)C(N)=O)C(C)C
B16: peptide of SEQ ID NO 108 (peptide)
peptide: RMRYWPM
HELM: PEPTIDE1{[CCCC(=O)[*:2]].R.M.R.Y.W.P.[dM].[am]}$$$$V2.0
SMILES: CCCC(=O)N[C@@H](CCCNC(=N)N)C(=O)N[C@@H](CCSC)C(=O)N[C@@H](CCCNC(=N)N)C(=O)N[C@@H](Cc1ccc(O)cc1)C(=O)N[C@@H](Cc1c[nH]c2ccccc12)C(=O)N1CCC[C@H]1C(=O)N[C@H](CCSC)C(N)=O
B17: peptide of SEQ ID NO 114 (peptide)
peptide: MKYWPM
HELM: PEPTIDE1{[ac].M.K.Y.W.P.[dM].[am]}$$$$V2.0
SMILES: CSCC[C@H](NC(C)=O)C(=O)N[C@@H](CCCCN)C(=O)N[C@@H](Cc1ccc(O)cc1)C(=O)N[C@@H](Cc1c[nH]c2ccccc12)C(=O)N1CCC[C@H]1C(=O)N[C@H](CCSC)C(N)=O
B18: peptide of SEQ ID NO 150 (peptide)
peptide: HKYWPM
HELM: PEPTIDE1{[ac].H.K.Y.W.P.[dM].[am]}$$$$V2.0
SMILES: CSCC[C@@H](NC(=O)[C@@H]1CCCN1C(=O)[C@H](Cc1c[nH]c2ccccc12)NC(=O)[C@H](Cc1ccc(O)cc1)NC(=O)[C@H](CCCCN)NC(=O)[C@H](Cc1c[nH]cn1)NC(C)=O)C(N)=O
B19: peptide of SEQ ID NO 118 (peptide)
peptide: WRYWPM
HELM: PEPTIDE1{W.R.Y.W.P.[dM].[am]}$$$$V2.0; N-terminus assumed
SMILES: CSCC[C@@H](NC(=O)[C@@H]1CCCN1C(=O)[C@H](Cc1c[nH]c2ccccc12)NC(=O)[C@H](Cc1ccc(O)cc1)NC(=O)[C@H](CCCNC(=N)N)NC(=O)[C@@H](N)Cc1c[nH]c2ccccc12)C(N)=O
B20: peptide of SEQ ID NO 109 (peptide)
peptide: RMRYWPM
HELM: PEPTIDE1{[CCCCCCCC(=O)[*:2]].R.M.R.Y.W.P.[dM].[am]}$$$$V2.0
SMILES: CCCCCCCC(=O)N[C@@H](CCCNC(=N)N)C(=O)N[C@@H](CCSC)C(=O)N[C@@H](CCCNC(=N)N)C(=O)N[C@@H](Cc1ccc(O)cc1)C(=O)N[C@@H](Cc1c[nH]c2ccccc12)C(=O)N1CCC[C@H]1C(=O)N[C@H](CCSC)C(N)=O
B21: peptide of SEQ ID NO 151 (peptide)
peptide: HKYWPM
HELM: PEPTIDE1{[CCCC(=O)[*:2]].H.K.Y.W.P.[dM].[am]}$$$$V2.0
SMILES: CCCC(=O)N[C@@H](Cc1c[nH]cn1)C(=O)N[C@@H](CCCCN)C(=O)N[C@@H](Cc1ccc(O)cc1)C(=O)N[C@@H](Cc1c[nH]c2ccccc12)C(=O)N1CCC[C@H]1C(=O)N[C@H](CCSC)C(N)=O

Target: T1, formyl peptide receptor 2 (FPR2)
Experiment: cell-based or functional assay

Binder	EC50 for [Ca2+] [nM]
B1	< 10
B2	< 10
B3	< 10
B4	< 10
B5	< 10
B6	< 10
B7	< 10
B8	< 10
B9	< 10
B10	< 10
B11	< 10
B12	< 10
B13	< 10
B14	< 10
B15	< 10
B16	< 10
B17	< 10
B18	< 10
B19	< 10
B20	< 10
B21	< 10
